# Numbering of substitutions follows the chain as printed.
# B1: Hab009VL1aVH1-hFc (scFv, part only; not given: scFv linker and human IgG1 Fc, V domains shown, not shown: another chain or arm of the molecule; a dimerising Fc or GST; small tags and cut ends)
# VL: DIVMTQSPLSLPVTPGEPASISCRASQTISDYLHWYLQKPGQSPQLLIKYASQSISGVPDRFSGSGSGSDFTLKISRVEAEDVGVYYCQQGHSFPLTFGQGTKLEIK
# VH: EVQLVQSGAEVKKPGASVKVSCKASGYTFTSYWMHWVRQAPGQRLEWMGTIYPGNSDTRYNQKFKDRVTITADTSASTAYMELSSLRSEDTAVYYCTRSYDYGDLDYWGQGTTVTVSS
# B2: Hab009VL2aVH1-hFc (scFv, part only; not given: VL-VH linker and human IgG1 Fc, V domains shown, not shown: another chain or arm of the molecule; a dimerising Fc or GST; small tags and cut ends)
# VL: B1 VL with Q45R, S69T
# VH: B1 VH
# B3: Hab006VL4VH2-hFc (scFv, part only; not given: scFv linker and human IgG1 Fc, V domains shown, not shown: another chain or arm of the molecule; a dimerising Fc or GST; small tags and cut ends)
# VL: DIVMTQSPDSLAVSLGERATINCRATKSISKYLAWYQQKPGQTNKLLIFSGSTLQSGVPDRFSGSGSGTDFTLTISSLQAEDVAVYYCQQHHEYPYTFGGGTKVEIK
# VH: EVQLVQSGAEVKKPGASVKVSCKASGYTFTSYWMHWVRQAPGQRLEWMGVIDPSDSLANYNQEFKGRVTLTVDTSASTAYMELSSLRSEDTAVYYCARDSTVVAPMDYWGQGTTVTVSS
# B4: Hab015VL4VH1a-hFc (scFv, part only; not given: scFv linker and human IgG1 Fc, V domains shown, not shown: another chain or arm of the molecule; a dimerising Fc or GST; small tags and cut ends)
# VL: NIVLTQSPATLSLSPGERATLSCKASENVGTYVSWFQQKPGQSPRLLIYGASNRYTGIPARFSGSGSGTDFTLTISSLEPEDFAVYYCGQFYSFPSTFGGGTKVEIK
# VH: EVQLVESGGGLVKPGGSLRLSCAASGITFSNFWMNWVRQAPGKGLEWVGQIRLKSDDYATHYAESVKGRFTISREDSKNTVYLQMNSLKTEDTAVYYCTTGYYFDYWGQGTTVTVSS
# Molecular target: human DLL3 protein expressed on CHO-K1 recombinant cells (human DLL3 extracellular segment fused to EpCAM transmembrane and intracellular regions) (human) (UniProt Q9NYJ7)
# Assay: FACS, CHO-K1 hDLL3 cells, 4 nM antibody
# Chain of human DLL3 protein expressed on CHO-K1 recombinant cells (human DLL3 extracellular segment fused to EpCAM transmembrane and intracellular regions) (human) (Q9NYJ7 other isoform, or with tags, fused parts or gaps limits assumed): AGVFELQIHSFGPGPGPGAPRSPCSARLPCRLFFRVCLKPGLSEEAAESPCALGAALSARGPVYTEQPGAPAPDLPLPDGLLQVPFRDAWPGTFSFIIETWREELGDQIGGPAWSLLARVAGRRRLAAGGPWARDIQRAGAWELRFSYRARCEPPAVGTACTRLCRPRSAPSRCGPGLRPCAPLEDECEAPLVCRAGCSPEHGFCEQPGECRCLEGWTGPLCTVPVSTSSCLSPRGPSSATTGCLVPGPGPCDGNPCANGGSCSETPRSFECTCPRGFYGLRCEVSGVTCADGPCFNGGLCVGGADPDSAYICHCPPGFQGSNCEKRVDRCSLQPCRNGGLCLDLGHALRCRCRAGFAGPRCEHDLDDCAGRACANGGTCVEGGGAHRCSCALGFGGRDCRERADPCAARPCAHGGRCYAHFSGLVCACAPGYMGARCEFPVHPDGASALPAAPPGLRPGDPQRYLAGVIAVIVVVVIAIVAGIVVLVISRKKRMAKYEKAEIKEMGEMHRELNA
row,Binder,MFI
1,B1,11900 MFI
2,B2,12700 MFI
3,B3,13800 MFI
4,B4,7920 MFI

# Molecular target: human DLL3 protein expressed on CHO-K1 recombinant cells (human DLL3 extracellular segment fused to EpCAM transmembrane and intracellular regions) (human) (UniProt Q9NYJ7)
# Assay: FACS, CHO-K1 hDLL3 cells, 0.032 nM antibody
row,Binder,MFI
1,B1,1540 MFI
2,B2,1610 MFI
3,B3,1340 MFI
4,B4,294 MFI

# Molecular target: DLL3 endogenously expressed on NCI-H82 cells (UniProt Q9NYJ7)
# Assay: FACS on NCI-H82 cells; antibody 0.16 nM
# Chain of DLL3 endogenously expressed on NCI-H82 cells (Q9NYJ7 27-618): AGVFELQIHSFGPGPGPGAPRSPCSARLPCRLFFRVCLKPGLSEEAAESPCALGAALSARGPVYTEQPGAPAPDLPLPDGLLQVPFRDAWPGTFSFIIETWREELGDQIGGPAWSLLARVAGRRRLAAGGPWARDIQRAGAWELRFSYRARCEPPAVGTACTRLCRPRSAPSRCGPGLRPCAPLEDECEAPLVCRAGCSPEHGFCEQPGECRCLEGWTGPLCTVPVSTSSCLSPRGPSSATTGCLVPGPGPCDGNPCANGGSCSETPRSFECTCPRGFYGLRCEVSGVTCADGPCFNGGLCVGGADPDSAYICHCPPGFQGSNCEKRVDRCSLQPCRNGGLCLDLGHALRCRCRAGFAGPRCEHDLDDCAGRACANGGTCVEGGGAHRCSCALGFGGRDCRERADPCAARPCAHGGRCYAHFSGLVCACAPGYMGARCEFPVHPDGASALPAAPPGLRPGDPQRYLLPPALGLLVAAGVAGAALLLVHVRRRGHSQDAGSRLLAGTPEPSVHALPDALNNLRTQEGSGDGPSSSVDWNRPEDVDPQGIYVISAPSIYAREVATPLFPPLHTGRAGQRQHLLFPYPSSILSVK
row,Binder,MFI
1,B4,489

# Molecular target: DLL3 endogenously expressed on NCI-H82 cells (UniProt Q9NYJ7)
# Assay: FACS on NCI-H82 cells; antibody 100 nM
row,Binder,MFI
1,B4,1520

# Molecular target: DLL3 endogenously expressed on NCI-H82 cells (UniProt Q9NYJ7)
# Assay: FACS on NCI-H82 cells; antibody 4 nM
row,Binder,MFI
1,B4,1060

# Molecular target: monkey DLL3 on CHO-K1-cyno DLL3 cells (cynomolgus monkey)
# Assay: FACS, CHO-K1-cyno DLL3 cells, 0.0064 nM antibody
# Chain of monkey DLL3 on CHO-K1-cyno DLL3 cells (cynomolgus monkey) (chain, as listed by the source limits assumed): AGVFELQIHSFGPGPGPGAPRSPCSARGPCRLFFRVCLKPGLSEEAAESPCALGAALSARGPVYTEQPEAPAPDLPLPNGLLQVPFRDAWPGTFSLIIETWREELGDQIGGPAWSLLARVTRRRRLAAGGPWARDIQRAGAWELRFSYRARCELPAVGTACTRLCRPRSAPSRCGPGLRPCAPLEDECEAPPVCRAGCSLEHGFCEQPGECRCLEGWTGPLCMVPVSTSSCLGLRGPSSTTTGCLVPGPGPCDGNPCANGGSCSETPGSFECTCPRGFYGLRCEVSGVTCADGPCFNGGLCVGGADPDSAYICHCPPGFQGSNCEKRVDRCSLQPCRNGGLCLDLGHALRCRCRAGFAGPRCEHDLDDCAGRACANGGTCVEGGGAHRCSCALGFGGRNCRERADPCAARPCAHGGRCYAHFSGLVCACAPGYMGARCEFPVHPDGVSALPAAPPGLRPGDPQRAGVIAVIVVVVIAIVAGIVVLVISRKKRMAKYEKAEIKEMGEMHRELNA
row,Binder,MFI
1,B1,178 MFI
2,B2,3160 MFI
3,B3,494 MFI
4,B4,168 MFI

# Molecular target: mouse DLL3 on CHO-K1-mDLL3 cells (mouse) (UniProt O88516)
# Assay: FACS, CHO-K1-mDLL3 cells, 20 nM antibody
# Chain of mouse DLL3 on CHO-K1-mDLL3 cells (mouse) (O88516 other isoform, or with tags, fused parts or gaps limits assumed): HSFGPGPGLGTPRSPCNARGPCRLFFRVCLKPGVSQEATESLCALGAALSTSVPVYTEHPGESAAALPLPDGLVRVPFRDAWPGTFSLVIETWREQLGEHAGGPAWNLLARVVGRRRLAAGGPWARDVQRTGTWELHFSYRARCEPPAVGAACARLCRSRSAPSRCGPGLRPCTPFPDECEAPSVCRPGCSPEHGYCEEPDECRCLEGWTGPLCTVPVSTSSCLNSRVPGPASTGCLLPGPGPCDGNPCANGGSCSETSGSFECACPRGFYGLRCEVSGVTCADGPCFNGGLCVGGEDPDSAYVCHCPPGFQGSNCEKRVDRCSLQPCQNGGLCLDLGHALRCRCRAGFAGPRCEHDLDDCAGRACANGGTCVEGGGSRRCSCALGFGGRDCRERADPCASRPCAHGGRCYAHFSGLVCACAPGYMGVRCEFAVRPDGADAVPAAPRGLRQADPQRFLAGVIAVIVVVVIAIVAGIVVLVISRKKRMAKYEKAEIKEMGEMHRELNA
row,Binder,MFI
1,B1,383 MFI
2,B2,398 MFI
3,B3,605 MFI
4,B4,1150 MFI

# Molecular target: DLL3 endogenously expressed on NCI-H82 cells (UniProt Q9NYJ7)
# Assay: FACS on NCI-H82 cells; antibody 20 nM
row,Binder,MFI
1,B4,1200

# Molecular target: DLL3 endogenously expressed on NCI-H82 cells (UniProt Q9NYJ7)
# Assay: FACS on NCI-H82 cells; antibody 0.00128 nM
row,Binder,MFI
1,B4,118

# Molecular target: human DLL3 protein (extracellular segment, His tag) (human) (UniProt Q9NYJ7)
# Assay: SPR (Biacore 8K), antibody captured on Protein A chip, DLL3 antigen in solution, 1:1 Langmuir fit
# Chain of human DLL3 protein (extracellular segment, His tag) (human) (Q9NYJ7 27-492): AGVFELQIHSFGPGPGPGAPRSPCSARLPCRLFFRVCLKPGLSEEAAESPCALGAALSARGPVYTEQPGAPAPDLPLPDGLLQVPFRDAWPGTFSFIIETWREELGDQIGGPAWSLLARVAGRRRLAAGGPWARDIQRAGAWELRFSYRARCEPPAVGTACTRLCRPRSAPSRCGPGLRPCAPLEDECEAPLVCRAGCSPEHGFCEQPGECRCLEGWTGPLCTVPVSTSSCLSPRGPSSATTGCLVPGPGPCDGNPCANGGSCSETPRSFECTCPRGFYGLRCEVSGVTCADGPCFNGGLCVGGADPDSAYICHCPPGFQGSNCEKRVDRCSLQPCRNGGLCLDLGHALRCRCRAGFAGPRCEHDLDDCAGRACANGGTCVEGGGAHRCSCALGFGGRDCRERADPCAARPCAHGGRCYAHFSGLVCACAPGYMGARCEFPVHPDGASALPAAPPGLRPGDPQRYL
Binder,Kd,koff,kon
B1,0.325 nM,0.00194 s⁻¹,5.96e+06 M⁻¹ s⁻¹
B2,0.328 nM,0.0019 s⁻¹,5.79e+06 M⁻¹ s⁻¹
B3,0.395 nM,0.000156 s⁻¹,394000 M⁻¹ s⁻¹

# Molecular target: mouse DLL3 on CHO-K1-mDLL3 cells (mouse) (UniProt O88516)
# Assay: FACS, CHO-K1-mDLL3 cells, 0.00128 nM antibody
row,Binder,MFI
1,B1,86 MFI
2,B2,172 MFI
3,B3,99 MFI
4,B4,117 MFI

# Molecular target: monkey DLL3 on CHO-K1-cyno DLL3 cells (cynomolgus monkey)
# Assay: FACS, CHO-K1-cyno DLL3 cells, 0.032 nM antibody
row,Binder,MFI
1,B1,423 MFI
2,B2,5450 MFI
3,B3,1340 MFI
4,B4,399 MFI

# Molecular target: DLL3 endogenously expressed on NCI-H82 cells (UniProt Q9NYJ7)
# Assay: FACS on NCI-H82 cells; antibody 0.032 nM
row,Binder,MFI
1,B4,213

# Molecular target: mouse DLL3 on CHO-K1-mDLL3 cells (mouse) (UniProt O88516)
# Assay: FACS, CHO-K1-mDLL3 cells, 0.8 nM antibody
row,Binder,MFI
1,B1,327 MFI
2,B2,338 MFI
3,B3,495 MFI
4,B4,779 MFI

# Molecular target: monkey DLL3 on CHO-K1-cyno DLL3 cells (cynomolgus monkey)
# Assay: FACS, CHO-K1-cyno DLL3 cells, 4 nM antibody
row,Binder,MFI
1,B1,19900 MFI
2,B2,27600 MFI
3,B3,8510 MFI
4,B4,5910 MFI

# Molecular target: human DLL4 protein (Acro, Cat. No. DL4-H5227) (human) (UniProt Q9NR61)
# Assay: ELISA, coated hDLL4; maximum over 0.1, 1, 10, 100 nM antibody
# Chain of human DLL4 protein (Acro, Cat. No. DL4-H5227) (human) (Q9NR61 27-524 limits assumed): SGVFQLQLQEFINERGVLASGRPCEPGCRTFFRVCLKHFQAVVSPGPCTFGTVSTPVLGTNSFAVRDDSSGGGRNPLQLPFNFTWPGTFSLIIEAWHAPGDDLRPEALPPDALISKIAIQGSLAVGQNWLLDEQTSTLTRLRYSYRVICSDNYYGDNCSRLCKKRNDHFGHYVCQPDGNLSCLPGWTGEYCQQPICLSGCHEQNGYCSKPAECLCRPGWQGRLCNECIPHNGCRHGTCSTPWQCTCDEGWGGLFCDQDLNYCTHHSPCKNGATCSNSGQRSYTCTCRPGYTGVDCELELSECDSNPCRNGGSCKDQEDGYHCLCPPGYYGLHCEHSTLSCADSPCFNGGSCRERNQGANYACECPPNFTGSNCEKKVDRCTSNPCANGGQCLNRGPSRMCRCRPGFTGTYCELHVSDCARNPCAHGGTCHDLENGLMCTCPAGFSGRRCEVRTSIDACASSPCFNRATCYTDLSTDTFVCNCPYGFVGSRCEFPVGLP
row,Binder,Emax of OD450 nm binding value
1,B1,0.08 OD450 nm
2,B2,0.06 OD450 nm
3,B3,0.06 OD450 nm
4,B4,0.65 OD450 nm

# Molecular target: human delta-like ligand 3 (DLL3) on SHP77 cells (human) (UniProt Q9NYJ7)
# Assay: FACS on SHP77 cells
# Chain of human delta-like ligand 3 (DLL3) on SHP77 cells (human) (Q9NYJ7 27-618, stated change not applied): as the sequence (Q9NYJ7 27-618) above
Binder,MFI at 0.00128 nM,MFI at 0.0064 nM,MFI at 0.032 nM,MFI at 0.16 nM,MFI at 0.8 nM,MFI at 4 nM,MFI at 20 nM,MFI at 100 nM
B1,107 MFI,129 MFI,205 MFI,430 MFI,692 MFI,783 MFI,855 MFI,969 MFI
B2,108 MFI,128 MFI,201 MFI,432 MFI,683 MFI,784 MFI,825 MFI,929 MFI
B3,199 MFI,281 MFI,528 MFI,1050 MFI,1330 MFI,1500 MFI,1620 MFI,1870 MFI
B4,99 MFI,112 MFI,174 MFI,385 MFI,730 MFI,762 MFI,962 MFI,1240 MFI

# Molecular target: mouse DLL3 on CHO-K1-mDLL3 cells (mouse) (UniProt O88516)
# Assay: FACS, CHO-K1-mDLL3 cells, 100 nM antibody
row,Binder,MFI
1,B1,400 MFI
2,B2,438 MFI
3,B3,580 MFI
4,B4,1450 MFI

# Molecular target: mouse DLL3 on CHO-K1-mDLL3 cells (mouse) (UniProt O88516)
# Assay: FACS, CHO-K1-mDLL3 cells, 0.032 nM antibody
row,Binder,MFI
1,B1,166 MFI
2,B2,272 MFI
3,B3,185 MFI
4,B4,172 MFI

# Molecular target: mouse DLL3 on CHO-K1-mDLL3 cells (mouse) (UniProt O88516)
# Assay: FACS, CHO-K1-mDLL3 cells, 4 nM antibody
row,Binder,MFI
1,B1,367 MFI
2,B2,358 MFI
3,B3,577 MFI
4,B4,1040 MFI

# Molecular target: DLL3 endogenously expressed on NCI-H82 cells (UniProt Q9NYJ7)
# Assay: FACS on NCI-H82 cells; antibody 0.0064 nM
row,Binder,MFI
1,B4,137

# Molecular target: human DLL3 protein expressed on CHO-K1 recombinant cells (human DLL3 extracellular segment fused to EpCAM transmembrane and intracellular regions) (human) (UniProt Q9NYJ7)
# Assay: FACS, CHO-K1 hDLL3 cells, 0.8 nM antibody
row,Binder,MFI
1,B1,11000 MFI
2,B2,12000 MFI
3,B3,11900 MFI
4,B4,5070 MFI

# Molecular target: monkey DLL3 on CHO-K1-cyno DLL3 cells (cynomolgus monkey)
# Assay: FACS, CHO-K1-cyno DLL3 cells, 0.00128 nM antibody
row,Binder,MFI
1,B1,120 MFI
2,B2,1340 MFI
3,B3,276 MFI
4,B4,123 MFI

# Molecular target: monkey DLL3 on CHO-K1-cyno DLL3 cells (cynomolgus monkey)
# Assay: FACS, CHO-K1-cyno DLL3 cells, 0.16 nM antibody
row,Binder,MFI
1,B1,1640 MFI
2,B2,13700 MFI
3,B3,3970 MFI
4,B4,1240 MFI

# Molecular target: monkey DLL3 on CHO-K1-cyno DLL3 cells (cynomolgus monkey)
# Assay: FACS, CHO-K1-cyno DLL3 cells, 100 nM antibody
row,Binder,MFI
1,B1,27000 MFI
2,B2,28400 MFI
3,B3,10500 MFI
4,B4,7590 MFI

# Molecular target: human DLL1 protein (Acro, Cat. No. DL1-H52H8) (human) (UniProt O00548)
# Assay: ELISA, coated hDLL1; maximum over 0.1, 1, 10, 100 nM antibody
# Chain of human DLL1 protein (Acro, Cat. No. DL1-H52H8) (human) (O00548 18-540 limits assumed): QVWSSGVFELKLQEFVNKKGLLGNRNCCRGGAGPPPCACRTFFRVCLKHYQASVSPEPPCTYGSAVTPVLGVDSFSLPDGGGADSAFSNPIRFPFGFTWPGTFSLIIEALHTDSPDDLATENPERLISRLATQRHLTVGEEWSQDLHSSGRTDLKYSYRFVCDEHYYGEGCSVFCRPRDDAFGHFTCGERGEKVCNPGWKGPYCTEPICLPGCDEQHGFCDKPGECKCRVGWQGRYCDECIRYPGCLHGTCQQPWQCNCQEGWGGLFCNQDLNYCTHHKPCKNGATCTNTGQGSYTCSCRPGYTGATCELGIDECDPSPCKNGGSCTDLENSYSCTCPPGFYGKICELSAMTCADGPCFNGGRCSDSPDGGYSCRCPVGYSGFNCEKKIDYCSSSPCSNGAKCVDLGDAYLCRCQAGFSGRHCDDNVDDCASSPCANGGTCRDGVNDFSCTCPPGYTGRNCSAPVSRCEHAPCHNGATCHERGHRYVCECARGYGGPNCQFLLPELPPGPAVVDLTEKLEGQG
row,Binder,Emax of OD450 nm binding value
1,B1,0.05 OD450 nm
2,B2,0.07 OD450 nm
3,B3,0.05 OD450 nm
4,B4,0.44 OD450 nm

# Molecular target: monkey DLL3 on CHO-K1-cyno DLL3 cells (cynomolgus monkey)
# Assay: FACS, CHO-K1-cyno DLL3 cells, 0.8 nM antibody
row,Binder,MFI
1,B1,6880 MFI
2,B2,24300 MFI
3,B3,7810 MFI
4,B4,4470 MFI

# Molecular target: human DLL3 protein expressed on CHO-K1 recombinant cells (human DLL3 extracellular segment fused to EpCAM transmembrane and intracellular regions) (human) (UniProt Q9NYJ7)
# Assay: FACS, CHO-K1 hDLL3 cells, 0.00128 nM antibody
row,Binder,MFI
1,B1,199 MFI
2,B2,210 MFI
3,B3,243 MFI
4,B4,122 MFI

# Molecular target: human DLL3 protein expressed on CHO-K1 recombinant cells (human DLL3 extracellular segment fused to EpCAM transmembrane and intracellular regions) (human) (UniProt Q9NYJ7)
# Assay: FACS, CHO-K1 hDLL3 cells, 100 nM antibody
row,Binder,MFI
1,B1,12900 MFI
2,B2,13100 MFI
3,B3,15400 MFI
4,B4,11400 MFI

# Molecular target: human DLL3 protein expressed on CHO-K1 recombinant cells (human DLL3 extracellular segment fused to EpCAM transmembrane and intracellular regions) (human) (UniProt Q9NYJ7)
# Assay: FACS, CHO-K1 hDLL3 cells, 0.16 nM antibody
row,Binder,MFI
1,B1,5840 MFI
2,B2,5930 MFI
3,B3,4700 MFI
4,B4,941 MFI

# Molecular target: human DLL3 protein expressed on CHO-K1 recombinant cells (human DLL3 extracellular segment fused to EpCAM transmembrane and intracellular regions) (human) (UniProt Q9NYJ7)
# Assay: FACS, CHO-K1 hDLL3 cells, 0.0064 nM antibody
row,Binder,MFI
1,B1,452 MFI
2,B2,476 MFI
3,B3,458 MFI
4,B4,152 MFI

# Molecular target: mouse DLL3 on CHO-K1-mDLL3 cells (mouse) (UniProt O88516)
# Assay: FACS, CHO-K1-mDLL3 cells, 0.16 nM antibody
row,Binder,MFI
1,B1,258 MFI
2,B2,300 MFI
3,B3,343 MFI
4,B4,339 MFI

# Molecular target: DLL3 endogenously expressed on NCI-H82 cells (UniProt Q9NYJ7)
# Assay: FACS on NCI-H82 cells; antibody 0.8 nM
row,Binder,MFI
1,B4,993

# Molecular target: human DLL3 protein expressed on CHO-K1 recombinant cells (human DLL3 extracellular segment fused to EpCAM transmembrane and intracellular regions) (human) (UniProt Q9NYJ7)
# Assay: FACS, CHO-K1 hDLL3 cells, 20 nM antibody
row,Binder,MFI
1,B1,12400 MFI
2,B2,12600 MFI
3,B3,14500 MFI
4,B4,10600 MFI

# Molecular target: monkey DLL3 on CHO-K1-cyno DLL3 cells (cynomolgus monkey)
# Assay: FACS, CHO-K1-cyno DLL3 cells, 20 nM antibody
row,Binder,MFI
1,B1,27100 MFI
2,B2,28200 MFI
3,B3,9180 MFI
4,B4,6720 MFI

# Molecular target: mouse DLL3 on CHO-K1-mDLL3 cells (mouse) (UniProt O88516)
# Assay: FACS, CHO-K1-mDLL3 cells, 0.0064 nM antibody
row,Binder,MFI
1,B1,109 MFI
2,B2,238 MFI
3,B3,118 MFI
4,B4,123 MFI

# From EP4786492A1
